For experiment [1], the target named is T1, human DR5 (full-length) (human, UniProt O14763 56-440).
T1 construct: whole, on cells; Whole receptor on cells (flow cytometry) or in cell lysates (co-immunoprecipitation); also called TRAIL-R2; wild-type DR5
In words: co-immunoprecipitation using TRA-8, transfected HEK293A cells.
Protocol: (§1) After 24 hours following transfection, protein expression was determined by Western blot analysis using respective monoclonal antibody. For co-immunoprecipitation analysis, cells were lysed with immunoprecipitation-lysis buffer containing a protease inhibitor cocktail.
(§2) The composition of the DR5 DISC was determined as follows. […] The DR5 DISC was then precipitated overnight at 4° C. with 30 μl beads. After immunoprecipitation, the beads were washed four times with lysis buffer. The beads were then washed five times with 10 mM Tris buffer and resuspended in loading buffer for SDS-PAGE and immunoblotting analyses.

The target in experiment [2] is T1, human DR5 (full-length). Description: co-immunoprecipitation and Western blot with anti-6-His antibody, transfected MDA231 cells. Background: Immunoblotting shows a protein as a band on a membrane.
Protocol: as §2
The target in experiment [3] is T2, cIAP1 (human, UniProt Q13490 1-618, limits assumed).
T2 construct: also called DR5-associated cIAP1; purified cIAP1
T2 sequence (Q13490 whole entry): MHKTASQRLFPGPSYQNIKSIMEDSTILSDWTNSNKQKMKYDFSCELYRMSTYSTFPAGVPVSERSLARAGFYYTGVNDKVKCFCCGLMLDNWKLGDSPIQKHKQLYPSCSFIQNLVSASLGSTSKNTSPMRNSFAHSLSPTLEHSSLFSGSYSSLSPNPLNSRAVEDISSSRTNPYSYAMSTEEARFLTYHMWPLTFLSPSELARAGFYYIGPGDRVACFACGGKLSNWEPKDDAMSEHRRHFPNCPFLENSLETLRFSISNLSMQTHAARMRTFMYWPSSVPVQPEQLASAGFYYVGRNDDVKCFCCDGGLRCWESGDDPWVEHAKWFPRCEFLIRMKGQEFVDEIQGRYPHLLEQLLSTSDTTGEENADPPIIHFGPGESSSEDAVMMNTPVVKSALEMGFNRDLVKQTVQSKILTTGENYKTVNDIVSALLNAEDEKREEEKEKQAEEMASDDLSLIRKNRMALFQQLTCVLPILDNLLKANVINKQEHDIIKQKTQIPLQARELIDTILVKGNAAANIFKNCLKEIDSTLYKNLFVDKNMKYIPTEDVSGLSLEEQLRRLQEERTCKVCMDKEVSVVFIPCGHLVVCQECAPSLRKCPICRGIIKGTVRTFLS
In words: co-immunoprecipitation, transfected HEK293A cells.
Protocol: as §1

Experiment [4] concerns the target T1, human DR5 (full-length). Description: cell-based or functional assay.
Experiment [5] deals with T1, human DR5 (full-length). Description: cell-based or functional assay. This is another data set of the same source.
The target of experiment [6] is T2, cIAP1. Description: DR5 co-IP and Western blot with anti-DDX3 and anti-cIAP1 antibody.

Five molecules from patent publication US20110104143A1 (UAB RESEARCH FOUNDATION, published 2011) can be followed below.

B1: DDX3Δ1-350 (other, human, UniProt O00571 1-350, looked up, not shown: small tags and cut ends)
chain: MSHVAVENALGLDQQFAGLDLNSSDNQSGGSTASKGRYIPPHLRNREATKGFYDKDSSGWSSSKDKDAYSSFGSRSDSRGKSSFFSDRGSGSRGRFDDRGRSDYDGIGSRGDRSGFGKFERGGNSRWCDKSDEDDWSKPLPPSERLEQELFSGGNTGINFEKYDDIPVEATGNNCPPHIESFSDVEMGEIIMGNIELTRYTRPTPVQKHAIPIIKEKRDLMACAQTGSGKTAAFLLPILSQIYSDGPGEALRAMKENGRYGRRKQYPISLVLAPTRELAVQIYEEARKFSYRSRVRPCVVYGGADIGQQIRDLERGCHLLVATPGRLVDMMERGKIGLDFCKYLVLDEAD
notes: range 1-350; Name read as the residues kept; also called C-terminal deleted DDX3
Consider B1, for which, in the experiment with human DR5 (full-length) [1], the binding result is reported as “no binding”.

B2: His-tagged DDX3 C-terminal fragment (amino acids 310-662) (other)
chain: HHHHHHIRDLERGCHLLVATPGRLVDMMERGKIGLDFCKYLVLDEADRMLDMGFEPQIRRIVEQDTMPPKGVRHTMMFSATFPKEIQMLARDFLDEYIFLAVGRVGSTSENITQKVVWVEESDKRSFLLDLLNATGKDSLTLVFVETKKGADSLEDFLYHEGYACTSIHGDRSQRDREEALHQFRSGKSPILVATAVAARGLDISNVKHVINFDLPSDIEEYVHRIGRTGRVGNLGLATSFFNERNINITKDLLDLLVEAKQEVPSWLENMAYEHHYKGSSRGRSKSSRFSGGFGARDYRQSSGASSSSFSSSRASSSRSGGGGHGSSRGFGGGGYGGFYNSDGYGGNYNSQGVDWWGN
notes: also called C-terminal deletion mutant
As to B2, the binding result in the experiment with human DR5 (full-length) [2] is “no binding”.

B3: DDX3Δ101-662 (other)
chain: HHHHHHRSDYDGIGSRGDRSGFGKFERGGNSRWCDKSDEDDWSKPLPPSERLEQELFSGGNTGINFEKYDDIPVEATGNNCPPHIESFSDVEMGEIIMGNIELTRYTRPTPVQKHAIPIIKEKRDLMACAQTGSGKTAAFLLPILSQIYSDGPGEALRAMKENGRYGRRKQYPISLVLAPTRELAVQIYEEARKFSYRSRVRPCVVYGGADIGQQIRDLERGCHLLVATPGRLVDMMERGKIGLDFCKYLVLDEADRMLDMGFEPQIRRIVEQDTMPPKGVRHTMMFSATFPKEIQMLARDFLDEYIFLAVGRVGSTSENITQKVVWVEESDKRSFLLDLLNATGKDSLTLVFVETKKGADSLEDFLYHEGYACTSIHGDRSQRDREEALHQFRSGKSPILVATAVAARGLDISNVKHVINFDLPSDIEEYVHRIGRTGRVGNLGLATSFFNERNINITKDLLDLLVEAKQEVPSWLENMAYEHHYKGSSRGRSKSSRFSGGFGARDYRQSSGASSSSFSSSRASSSRSGGGGHGSSRGFGGGGYGGFYNSDGYGGNYNSQGVDWWGN
notes: also called DDX3 with the first 100 amino acids deleted; DN
With B3, in the experiment with cIAP1 [3], the binding result was “no binding”.

B4: TRA-8 (anti-human DR5 monoclonal antibody) (antibody, V domains shown)
VH: EVMLVESGGGLVKPGGSLKLSCAASGFTFSSYVMSWVRQTPEKRLEWVATISSGGSYTYYPDSVKGRFTISRDNAKNTLYLQMSSLRSEDTAMYYCARRGDSMITTDYWGQGTTLTVSS
VL: DIVMTQSHKFMSTSVGDRVSITCKASQDVGTAVAWYQQKPGQSPKLLIYWASTRHTGVPDRFTGSGSGTDFTLTISNVQSEDLADYFCQQYSSYRTFGGGTKLEIKR
For B4, in the experiment with human DR5 (full-length) [4], the “IC50 of TRA-8 cytotoxicity (ATP cell viability), 2LMP cells” value is 0.0011 µg/mL; the “IC50 of TRA-8 cytotoxicity (ATP cell viability), BT-20 cells” value amounted to 0.048 µg/mL; the “IC50 of TRA-8 cytotoxicity (ATP cell viability), BT-549 cells” value worked out at 0.018 µg/mL; the “IC50 of TRA-8 cytotoxicity (ATP cell viability), HCC38 cells” value came out at 0.0009 µg/mL. For the same molecule, in the experiment with human DR5 (full-length) [4], the “IC50 of TRA-8 cytotoxicity (ATP cell viability), HCC1143 cells” value is > 1 µg/mL; the “IC50 of TRA-8 cytotoxicity (ATP cell viability), HCC1187 cells” value was found to be 0.024 µg/mL; the “IC50 of TRA-8 cytotoxicity (ATP cell viability), HCC1599 cells” value is > 1 µg/mL; the “IC50 of TRA-8 cytotoxicity (ATP cell viability), HCC1937 cells” value is > 1 µg/mL. In addition, in the experiment with human DR5 (full-length) [4], the “IC50 of TRA-8 cytotoxicity (ATP cell viability), MDA-MB-152 cells” value was found to be 0.012 µg/mL; the “IC50 of TRA-8 cytotoxicity (ATP cell viability), MDA-MB-231 cells” value was 0.018 µg/mL; the “IC50 of TRA-8 cytotoxicity (ATP cell viability), MDA-MB-436 cells” value worked out at 0.0032 µg/mL; the “IC50 of TRA-8 cytotoxicity (ATP cell viability), MDA-MB-468 cells” value turned out to be 0.017 µg/mL. Besides, in the experiment with human DR5 (full-length) [4], the “IC50 of TRA-8 cytotoxicity (ATP cell viability), SUM102 cells” value amounted to 0.0045 µg/mL; the “IC50 of TRA-8 cytotoxicity (ATP cell viability), SUM149 cells” value worked out at 0.0009 µg/mL; the “IC50 of TRA-8 cytotoxicity (ATP cell viability), SUM159 cells” value came out at 0.0019 µg/mL. Moreover, in the experiment with human DR5 (full-length) [5], the “IC50 of TRA-8 cytotoxicity (ATP cell viability), BT-474 cells” value is > 1 µg/mL; the “IC50 of TRA-8 cytotoxicity (ATP cell viability), DY36T2 (MDA-MB-361 subclone) cells” value was > 1 µg/mL; the “IC50 of TRA-8 cytotoxicity (ATP cell viability), MCF-7 cells” value is > 1 µg/mL; the “IC50 of TRA-8 cytotoxicity (ATP cell viability), MDA-MB-134 cells” value was > 1 µg/mL. For the same molecule, in the experiment with human DR5 (full-length) [5], the “IC50 of TRA-8 cytotoxicity (ATP cell viability), MDA-MB-453 cells” value is > 1 µg/mL; the “IC50 of TRA-8 cytotoxicity (ATP cell viability), SK-BR-3 cells” value is > 1 µg/mL; the “IC50 of TRA-8 cytotoxicity (ATP cell viability), T-47D cells” value was > 1 µg/mL; the “IC50 of TRA-8 cytotoxicity (ATP cell viability), ZR-75-1 cells” value is 0.683 µg/mL. For the same molecule, in the experiment with human DR5 (full-length) [5], the “IC50 of TRA-8 cytotoxicity (ATP cell viability), ZR-75-30 cells” value is > 1 µg/mL.

B5: DDX3ΔCARD (DDX3Δ151-662) (other, human, UniProt O00571 151-662, looked up, not shown: small tags and cut ends)
chain: FSGGNTGINFEKYDDIPVEATGNNCPPHIESFSDVEMGEIIMGNIELTRYTRPTPVQKHAIPIIKEKRDLMACAQTGSGKTAAFLLPILSQIYSDGPGEALRAMKENGRYGRRKQYPISLVLAPTRELAVQIYEEARKFSYRSRVRPCVVYGGADIGQQIRDLERGCHLLVATPGRLVDMMERGKIGLDFCKYLVLDEADRMLDMGFEPQIRRIVEQDTMPPKGVRHTMMFSATFPKEIQMLARDFLDEYIFLAVGRVGSTSENITQKVVWVEESDKRSFLLDLLNATGKDSLTLVFVETKKGADSLEDFLYHEGYACTSIHGDRSQRDREEALHQFRSGKSPILVATAVAARGLDISNVKHVINFDLPSDIEEYVHRIGRTGRVGNLGLATSFFNERNINITKDLLDLLVEAKQEVPSWLENMAYEHHYKGSSRGRSKSSRFSGGFGARDYRQSSGASSSSFSSSRASSSRSGGGGHGSSRGFGGGGYGGFYNSDGYGGNYNSQGVDWWGN
notes: also called dominant negative mutant DDX3 lacking amino acids 1-150; truncated DDX3
With B5, the binding result with cIAP1 [6] is recorded as “no binding”.
